Assay results taken from patent publication US20260234260A1 (EUCURE BEIJING BIOPHARMA, published 2026).
Where two headings read alike, the source gives them in different places. One block for each binder: values may come before it.

How the values were obtained:
[1] = target: T1, human CD40 expressed on Jurkat-Luc-hCD40 reporter cells (human, UniProt P25942 21-277); assay: cell-based or functional assay
[2] = target: T1, human CD40 expressed on …; assay: cell-based or functional assay; remark: listed apart in the source
[3] = target: T2, neonatal Fc receptor (FcRn); assay: SPR (Biacore), antibody captured, FcRn as analyte
T2 construct: Analyte in Biacore
Description: The binding affinity to neonatal Fc receptor (FcRn) was determined by Biacore® systems.

[4] = target: human PD-1 expressed on cells (Jurkat-Luc-hPD-1, CHO-K1-hPD1, Jurkat-hPD1) (human, UniProt Q15116 25-288); assay: cell-based or functional assay
[5] = target: T3, human PD-1/PDCD1 protein, His Tag (ACRO Biosystems Cat #PD1-H5221) (human, UniProt Q15116 25-167); assay: SPR (Biacore), antibody captured, His-tagged hPD-1 in solution
T3 construct: Bought protein; also called hPD-1; human PD-1 protein; not shown: His tag

[6] = target: T1, human CD40 expressed on …; assay: cell-based or functional assay; remark: listed apart in the source
[7] = target: T1, human CD40 expressed on …; assay: cell-based or functional assay; remark: listed apart in the source
[8] = target: T4, human CD40/TNFRSF5 Protein, His Tag (ACRO Biosystems Cat #CD0-H5228) (human, UniProt P25942 21-193); assay: SPR (Biacore), antibody captured, His-tagged hCD40 in solution
T4 construct: Bought protein; also called hCD40; human CD40 protein; not shown: His tag

[9] = target: T4, human CD40/TNFRSF5 Protein, His Tag …; assay: SPR (Biacore), hCD40
Description: The binding affinity to human […] (hCD40) was determined by Biacore systems.

[10] = target: T1, human CD40 expressed on …; assay: cell-based or functional assay; remark: listed apart in the source
[11] = target: T1, human CD40 expressed on …; assay: cell-based or functional assay; remark: listed apart in the source
[12] = target: T1, human CD40 expressed on …; assay: cell-based or functional assay; remark: listed apart in the source

T1 sequence (P25942 21-277 limits assumed): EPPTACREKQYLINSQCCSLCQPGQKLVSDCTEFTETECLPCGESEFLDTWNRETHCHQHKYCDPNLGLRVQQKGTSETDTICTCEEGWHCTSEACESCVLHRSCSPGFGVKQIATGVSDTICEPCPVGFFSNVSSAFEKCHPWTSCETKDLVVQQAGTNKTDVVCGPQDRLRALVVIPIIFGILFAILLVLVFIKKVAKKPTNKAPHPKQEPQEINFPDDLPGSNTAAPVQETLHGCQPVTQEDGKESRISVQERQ
human PD-1 expressed on cells (Jurkat-Luc-hPD-1, CHO-K1-hPD1, Jurkat-hPD1), sequence (Q15116 25-288 limits assumed): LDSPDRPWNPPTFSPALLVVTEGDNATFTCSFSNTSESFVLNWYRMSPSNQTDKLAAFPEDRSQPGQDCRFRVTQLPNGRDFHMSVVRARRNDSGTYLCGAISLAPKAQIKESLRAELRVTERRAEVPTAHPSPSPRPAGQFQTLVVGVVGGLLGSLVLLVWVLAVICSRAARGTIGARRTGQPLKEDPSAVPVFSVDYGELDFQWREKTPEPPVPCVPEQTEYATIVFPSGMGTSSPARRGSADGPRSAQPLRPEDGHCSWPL
T3 sequence (Q15116 25-167 limits assumed): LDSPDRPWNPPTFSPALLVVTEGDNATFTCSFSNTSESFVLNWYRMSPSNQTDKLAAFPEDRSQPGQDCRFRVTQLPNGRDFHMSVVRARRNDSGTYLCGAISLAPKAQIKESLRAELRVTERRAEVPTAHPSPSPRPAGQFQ
T4 sequence (P25942 21-193 limits assumed): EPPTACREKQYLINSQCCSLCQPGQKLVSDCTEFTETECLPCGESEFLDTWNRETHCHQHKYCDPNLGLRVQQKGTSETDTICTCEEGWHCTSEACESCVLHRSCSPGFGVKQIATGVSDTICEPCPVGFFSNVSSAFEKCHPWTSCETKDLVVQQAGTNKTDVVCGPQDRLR

B1: Pembrolizumab-Seli-FVHC-IgG4 (bispecific antibody)
heavy: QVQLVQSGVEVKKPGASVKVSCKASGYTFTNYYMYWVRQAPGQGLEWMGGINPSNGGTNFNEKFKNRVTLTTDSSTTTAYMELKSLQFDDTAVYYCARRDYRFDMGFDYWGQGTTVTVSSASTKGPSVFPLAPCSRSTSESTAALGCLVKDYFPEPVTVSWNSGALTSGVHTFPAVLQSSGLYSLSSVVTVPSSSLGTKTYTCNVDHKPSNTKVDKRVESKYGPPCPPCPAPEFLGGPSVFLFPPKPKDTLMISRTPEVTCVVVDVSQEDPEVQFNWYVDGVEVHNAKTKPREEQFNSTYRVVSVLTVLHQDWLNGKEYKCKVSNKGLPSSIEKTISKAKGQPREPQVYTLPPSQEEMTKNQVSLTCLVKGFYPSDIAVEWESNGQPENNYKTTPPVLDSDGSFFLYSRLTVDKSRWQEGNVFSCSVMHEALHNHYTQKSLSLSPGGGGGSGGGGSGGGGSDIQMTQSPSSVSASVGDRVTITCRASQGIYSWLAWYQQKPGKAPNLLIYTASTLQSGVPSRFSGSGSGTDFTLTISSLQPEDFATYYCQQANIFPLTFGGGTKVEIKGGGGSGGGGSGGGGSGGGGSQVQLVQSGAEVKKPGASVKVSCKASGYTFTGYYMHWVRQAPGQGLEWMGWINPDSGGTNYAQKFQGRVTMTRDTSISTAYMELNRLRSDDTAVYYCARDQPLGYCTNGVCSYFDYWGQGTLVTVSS
light: EIVLTQSPATLSLSPGERATLSCRASKGVSTSGYSYLHWYQQKPGQAPRLLIYLASYLESGVPARFSGSGSGTDFTLTISSLEPEDFAVYYCQHSRDLPLTFGGGTKVEIKRTVAAPSVFIFPPSDEQLKSGTASVVCLLNNFYPREAKVQWKVDNALQSGNSQESVTEQDSKDSTYSLSSTLTLSKADYEKHKVYACEVTHQGLSSPVTKSFNRGEC
EC50 (read off the curve) [1]: ~0.1 µg/mL

B3: Pembrolizumab-APX005M-FVHC-IgG4 (bispecific antibody)
heavy: not shown
light: EIVLTQSPATLSLSPGERATLSCRASKGVSTSGYSYLHWYQQKPGQAPRLLIYLASYLESGVPARFSGSGSGTDFTLTISSLEPEDFAVYYCQHSRDLPLTFGGGTKVEIKRTVAAPSVFIFPPSDEQLKSGTASVVCLLNNFYPREAKVQWKVDNALQSGNSQESVTEQDSKDSTYSLSSTLTLSKADYEKHKVYACEVTHQGLSSPVTKSFNRGEC
EC50 (read off the curve) [2]: ~0.2 µg/mL

B5: 1A7-selicrelumab-FV3A-IgG4 (bispecific antibody)
heavy: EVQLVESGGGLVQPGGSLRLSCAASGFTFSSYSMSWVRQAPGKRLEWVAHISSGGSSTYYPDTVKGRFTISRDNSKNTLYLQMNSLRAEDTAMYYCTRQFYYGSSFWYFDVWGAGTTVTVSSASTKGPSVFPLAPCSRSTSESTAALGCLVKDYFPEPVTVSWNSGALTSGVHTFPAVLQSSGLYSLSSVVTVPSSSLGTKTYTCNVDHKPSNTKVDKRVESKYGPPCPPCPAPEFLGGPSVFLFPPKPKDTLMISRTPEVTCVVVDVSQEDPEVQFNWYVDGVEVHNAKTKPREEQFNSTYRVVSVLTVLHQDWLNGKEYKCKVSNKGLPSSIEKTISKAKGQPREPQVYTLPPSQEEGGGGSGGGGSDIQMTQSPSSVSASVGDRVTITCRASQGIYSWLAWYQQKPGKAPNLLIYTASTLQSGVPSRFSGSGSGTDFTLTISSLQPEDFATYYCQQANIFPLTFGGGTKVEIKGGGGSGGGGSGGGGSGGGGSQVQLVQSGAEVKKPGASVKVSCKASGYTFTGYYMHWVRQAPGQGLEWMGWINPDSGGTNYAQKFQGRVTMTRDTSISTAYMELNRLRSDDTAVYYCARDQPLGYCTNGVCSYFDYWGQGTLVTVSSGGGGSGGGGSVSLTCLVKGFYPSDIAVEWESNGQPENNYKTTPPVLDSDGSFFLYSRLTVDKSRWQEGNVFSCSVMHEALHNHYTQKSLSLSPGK
light: DNVLTQSPATLSVSPGERATLSCKASQSVDFDGDSYMNWYQQKPGQPPRLLIYAASNLESGIPARFSGSGSGTDFTLTISSVEPEDFATYYCQQSNEDPPTFGGGTKVEIKRTVAAPSVFIFPPSDEQLKSGTASVVCLLNNFYPREAKVQWKVDNALQSGNSQESVTEQDSKDSTYSLSSTLTLSKADYEKHKVYACEVTHQGLSSPVTKSFNRGEC
EC50 (read off the curve) [1]: ~0.3 µg/mL

B6: ScFV-HC-IgG4 (bispecific antibody)
heavy: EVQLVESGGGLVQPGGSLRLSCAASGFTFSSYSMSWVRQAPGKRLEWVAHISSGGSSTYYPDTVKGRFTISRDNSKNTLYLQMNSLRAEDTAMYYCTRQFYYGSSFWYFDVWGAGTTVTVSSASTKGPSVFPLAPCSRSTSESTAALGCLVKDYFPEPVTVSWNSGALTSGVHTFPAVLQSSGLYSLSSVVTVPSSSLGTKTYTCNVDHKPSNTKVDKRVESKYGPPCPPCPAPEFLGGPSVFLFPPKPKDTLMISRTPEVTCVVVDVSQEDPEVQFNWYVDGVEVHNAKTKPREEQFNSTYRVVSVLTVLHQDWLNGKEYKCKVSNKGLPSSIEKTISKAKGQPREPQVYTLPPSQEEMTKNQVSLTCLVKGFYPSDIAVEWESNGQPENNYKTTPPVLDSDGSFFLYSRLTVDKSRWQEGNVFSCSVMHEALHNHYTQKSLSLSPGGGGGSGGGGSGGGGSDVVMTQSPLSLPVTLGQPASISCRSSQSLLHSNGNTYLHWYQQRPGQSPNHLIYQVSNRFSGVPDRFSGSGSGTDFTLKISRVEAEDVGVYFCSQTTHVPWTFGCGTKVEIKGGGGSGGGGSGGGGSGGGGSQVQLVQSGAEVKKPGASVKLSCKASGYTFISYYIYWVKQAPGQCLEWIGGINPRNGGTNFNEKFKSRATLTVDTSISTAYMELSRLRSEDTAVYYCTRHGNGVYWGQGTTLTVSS
light: DNVLTQSPATLSVSPGERATLSCKASQSVDFDGDSYMNWYQQKPGQPPRLLIYAASNLESGIPARFSGSGSGTDFTLTISSVEPEDFATYYCQQSNEDPPTFGGGTKVEIKRTVAAPSVFIFPPSDEQLKSGTASVVCLLNNFYPREAKVQWKVDNALQSGNSQESVTEQDSKDSTYSLSSTLTLSKADYEKHKVYACEVTHQGLSSPVTKSFNRGEC
notes: Anti-CD40 scFv (6A7-H4K2) joined to the C-terminus of each heavy chain of the anti-PD-1 antibody 1A7-H2K3, IgG4
EC50 Value (ug/ml), luminescence of Jurkat-Luc-hCD40 reporter cells in the presence of CHO-K1-hPD1 basal cells [6]: 0.0108 µg/mL
EC50 Value (ug/ml), luminescence of Jurkat-Luc-hCD40 reporter cells in the presence of Jurkat-hPD1 basal cells [7]: 0.0079 µg/mL
EC50 Value (ug/ml), luminescence of Jurkat-Luc-hPD-1 effector cells co-cultured with CHO-aAPC-hPD-L1 cells [4]: 4.36 µg/mL
Kd [8]: 1.3 nM
koff [8]: 0.00034 s⁻¹
kon [8]: 261000 M⁻¹ s⁻¹
Kd [5]: 8.28 nM
koff [5]: 0.00122 s⁻¹
kon [5]: 148000 M⁻¹ s⁻¹

B8: ScFV-HC-IgG1-LALA (bispecific antibody)
heavy: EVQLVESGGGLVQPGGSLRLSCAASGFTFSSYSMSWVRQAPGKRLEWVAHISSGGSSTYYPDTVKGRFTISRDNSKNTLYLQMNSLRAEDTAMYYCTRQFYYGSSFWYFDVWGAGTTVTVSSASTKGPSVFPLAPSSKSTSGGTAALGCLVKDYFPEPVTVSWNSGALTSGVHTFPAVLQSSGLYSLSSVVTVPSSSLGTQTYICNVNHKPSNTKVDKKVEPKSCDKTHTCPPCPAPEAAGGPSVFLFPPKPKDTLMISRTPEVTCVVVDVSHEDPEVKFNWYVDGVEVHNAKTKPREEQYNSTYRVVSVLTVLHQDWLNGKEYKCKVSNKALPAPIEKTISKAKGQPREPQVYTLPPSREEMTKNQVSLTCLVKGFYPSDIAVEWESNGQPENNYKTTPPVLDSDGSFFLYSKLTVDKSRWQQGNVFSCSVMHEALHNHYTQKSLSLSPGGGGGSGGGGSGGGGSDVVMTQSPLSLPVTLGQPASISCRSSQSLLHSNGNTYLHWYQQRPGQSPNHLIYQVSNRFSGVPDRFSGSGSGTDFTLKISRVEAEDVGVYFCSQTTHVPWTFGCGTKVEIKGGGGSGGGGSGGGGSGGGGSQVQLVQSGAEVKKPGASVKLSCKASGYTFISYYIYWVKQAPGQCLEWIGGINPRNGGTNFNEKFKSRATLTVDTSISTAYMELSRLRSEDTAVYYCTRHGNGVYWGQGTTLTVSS
light: DNVLTQSPATLSVSPGERATLSCKASQSVDFDGDSYMNWYQQKPGQPPRLLIYAASNLESGIPARFSGSGSGTDFTLTISSVEPEDFATYYCQQSNEDPPTFGGGTKVEIKRTVAAPSVFIFPPSDEQLKSGTASVVCLLNNFYPREAKVQWKVDNALQSGNSQESVTEQDSKDSTYSLSSTLTLSKADYEKHKVYACEVTHQGLSSPVTKSFNRGEC
EC50 Value (ug/ml), luminescence of Jurkat-Luc-hCD40 reporter cells in the presence of Jurkat-hPD1 basal cells [7]: 0.0065 µg/mL

B9: Fab-ScFV-IgG4 (bispecific antibody)
heavy: EVQLVESGGGLVQPGGSLRLSCAASGFTFSSYSMSWVRQAPGKRLEWVAHISSGGSSTYYPDTVKGRFTISRDNSKNTLYLQMNSLRAEDTAMYYCTRQFYYGSSFWYFDVWGAGTTVTVSSASTKGPSVFPLAPCSRSTSESTAALGCLVKDYFPEPVTVSWNSGALTSGVHTFPAVLQSSGLYSLSSVVTVPSSSLGTKTYTCNVDHKPSNTKVDKRVESKYGPPCPPCPAPEFLGGPSVFLFPPKPKDTLMISRTPEVTCVVVDVSQEDPEVQFNWYVDGVEVHNAKTKPREEQFNSTYRVVSVLTVLHQDWLNGKEYKCKVSNKGLPSSIEKTISKAKGQPREPQVYTLPPCQEEMTKNQVSLWCLVKGFYPSDIAVEWESNGQPENNYKTTPPVLDSDGSFFLYSRLTVDKSRWQEGNVFSCSVMHEALHNHYTQKSLSLSLGK
light: DNVLTQSPATLSVSPGERATLSCKASQSVDFDGDSYMNWYQQKPGQPPRLLIYAASNLESGIPARFSGSGSGTDFTLTISSVEPEDFATYYCQQSNEDPPTFGGGTKVEIKRTVAAPSVFIFPPSDEQLKSGTASVVCLLNNFYPREAKVQWKVDNALQSGNSQESVTEQDSKDSTYSLSSTLTLSKADYEKHKVYACEVTHQGLSSPVTKSFNRGEC
chain: QVQLVQSGAEVKKPGASVKLSCKASGYTFISYYIYWVKQAPGQCLEWIGGINPRNGGTNFNEKFKSRATLTVDTSISTAYMELSRLRSEDTAVYYCTRHGNGVYWGQGTTLTVSSASTGGGGSGGGGSGGGGSGGGGSDVVMTQSPLSLPVTLGQPASISCRSSQSLLHSNGNTYLHWYQQRPGQSPNHLIYQVSNRFSGVPDRFSGSGSGTDFTLKISRVEAEDVGVYFCSQTTHVPWTFGCGTKVEIKDKRVESKYGPPCPPCPAPEFLGGPSVFLFPPKPKDTLMISRTPEVTCVVVDVSQEDPEVQFNWYVDGVEVHNAKTKPREEQFNSTYRVVSVLTVLHQDWLNGKEYKCKVSNKGLPSSIEKTISKAKGQPREPQVCTLPPSQEEMTKNQVSLSCAVKGFYPSDIAVEWESNGQPENNYKTTPPVLDSDGSFFLVSRLTVDKSRWQEGNVFSCSVMHEALHNHYTQKSLSLSLGK
notes: Anti-PD-1 arm (1A7-H2K3 heavy and light chain, IgG4 with KIH) and anti-CD40 arm (6A7-H4K2 scFv joined to IgG4 CH2-CH3 with KIH)
EC50 Value (ug/ml), luminescence of Jurkat-Luc-hCD40 reporter cells in the presence of CHO-K1-hPD1 basal cells [6]: 0.0103 µg/mL
EC50 Value (ug/ml), luminescence of Jurkat-Luc-hCD40 reporter cells in the presence of CHO-K1-hFcγRIIB basal cells [11]: 0.0543 µg/mL
EC50 Value (ug/ml), luminescence of Jurkat-Luc-hPD-1 effector cells co-cultured with CHO-aAPC-hPD-L1 cells [4]: 23.4 µg/mL
EC50 (read off the curve), luciferase Rlu, Jurkat-Luc-hCD40 reporter cells with CHO-K1-hFcγRIIB basal cells [12]: ~0.05 µg/mL
Kd [8]: 1.75 nM
koff [8]: 0.0005 s⁻¹
kon [8]: 285000 M⁻¹ s⁻¹
Kd [5]: 9.78 nM
koff [5]: 0.00117 s⁻¹
kon [5]: 120000 M⁻¹ s⁻¹
EC50 (read off the curve), luciferase Rlu, Jurkat-Luc-hCD40 reporter cells with CHO-K1-hPD-1 basal cells [10]: ~0.04 µg/mL

The remaining lines, values ahead:

EC50 (read off the curve) [2]: ~0.07 µg/mL
B2: Pembrolizumab-6A7-HC-IgG1-LALA (bispecific antibody)
heavy: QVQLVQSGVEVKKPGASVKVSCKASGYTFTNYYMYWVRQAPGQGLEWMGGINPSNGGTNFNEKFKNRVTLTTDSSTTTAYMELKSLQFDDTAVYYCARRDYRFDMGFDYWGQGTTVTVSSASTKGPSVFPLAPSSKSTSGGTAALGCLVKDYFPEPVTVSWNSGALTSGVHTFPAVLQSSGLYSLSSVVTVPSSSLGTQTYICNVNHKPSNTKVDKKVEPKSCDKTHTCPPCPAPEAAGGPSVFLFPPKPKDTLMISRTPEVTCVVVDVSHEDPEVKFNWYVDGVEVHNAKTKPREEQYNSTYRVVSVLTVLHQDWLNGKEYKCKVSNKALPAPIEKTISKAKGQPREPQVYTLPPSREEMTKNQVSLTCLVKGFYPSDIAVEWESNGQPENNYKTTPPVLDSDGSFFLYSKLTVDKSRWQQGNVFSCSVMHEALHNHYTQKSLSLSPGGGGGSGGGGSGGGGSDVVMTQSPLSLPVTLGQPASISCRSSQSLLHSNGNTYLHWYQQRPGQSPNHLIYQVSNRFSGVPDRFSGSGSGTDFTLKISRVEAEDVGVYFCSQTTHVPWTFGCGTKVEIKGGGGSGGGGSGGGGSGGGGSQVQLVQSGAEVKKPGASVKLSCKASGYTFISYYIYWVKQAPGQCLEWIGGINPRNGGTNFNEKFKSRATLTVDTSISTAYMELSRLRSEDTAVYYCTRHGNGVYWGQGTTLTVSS
light: EIVLTQSPATLSLSPGERATLSCRASKGVSTSGYSYLHWYQQKPGQAPRLLIYLASYLESGVPARFSGSGSGTDFTLTISSLEPEDFAVYYCQHSRDLPLTFGGGTKVEIKRTVAAPSVFIFPPSDEQLKSGTASVVCLLNNFYPREAKVQWKVDNALQSGNSQESVTEQDSKDSTYSLSSTLTLSKADYEKHKVYACEVTHQGLSSPVTKSFNRGEC

Kd [3]: 2210 nM
EC50 Value (ug/ml), luminescence of Jurkat-Luc-hPD-1 effector cells co-cultured with CHO-aAPC-hPD-L1 cells [4]: 5.61 µg/mL
Kd [5]: 8.56 nM
koff [5]: 0.00125 s⁻¹
kon [5]: 146000 M⁻¹ s⁻¹
B4: anti-PD-1 monoclonal antibody 1A7-H2K3-IgG4 (antibody)
VH: EVQLVESGGGLVQPGGSLRLSCAASGFTFSSYSMSWVRQAPGKRLEWVAHISSGGSSTYYPDTVKGRFTISRDNSKNTLYLQMNSLRAEDTAMYYCTRQFYYGSSFWYFDVWGAGTTVTVSS
light: DNVLTQSPATLSVSPGERATLSCKASQSVDFDGDSYMNWYQQKPGQPPRLLIYAASNLESGIPARFSGSGSGTDFTLTISSVEPEDFATYYCQQSNEDPPTFGGGTKVEIKRTVAAPSVFIFPPSDEQLKSGTASVVCLLNNFYPREAKVQWKVDNALQSGNSQESVTEQDSKDSTYSLSSTLTLSKADYEKHKVYACEVTHQGLSSPVTKSFNRGEC
notes: IgG4; also called PD-1 (1A7-H2K3-IgG4); PD1-1A7-H2K3-IgG4

Kd [3]: 1680 nM
Kd [9]: 0.419 nM
koff [9]: 0.000255 s⁻¹
kon [9]: 608000 M⁻¹ s⁻¹
EC50 (read off the curve), luciferase Rlu, Jurkat-Luc-hCD40 reporter cells with CHO-K1-hPD-1 basal cells [10]: ~0.03 µg/mL
B7: PD1-C40-6A7-FV3A (bispecific antibody, human IgG4 S228P, kappa)
heavy: EVQLVESGGGLVQPGGSLRLSCAASGFTFSSYSMSWVRQAPGKRLEWVAHISSGGSSTYYPDTVKGRFTISRDNSKNTLYLQMNSLRAEDTAMYYCTRQFYYGSSFWYFDVWGAGTTVTVSSASTKGPSVFPLAPCSRSTSESTAALGCLVKDYFPEPVTVSWNSGALTSGVHTFPAVLQSSGLYSLSSVVTVPSSSLGTKTYTCNVDHKPSNTKVDKRVESKYGPPCPPCPAPEFLGGPSVFLFPPKPKDTLMISRTPEVTCVVVDVSQEDPEVQFNWYVDGVEVHNAKTKPREEQFNSTYRVVSVLTVLHQDWLNGKEYKCKVSNKGLPSSIEKTISKAKGQPREPQVYTLPPSQEEGGGGSGGGGSDVVMTQSPLSLPVTLGQPASISCRSSQSLLHSNGNTYLHWYQQRPGQSPNHLIYQVSNRFSGVPDRFSGSGSGTDFTLKISRVEAEDVGVYFCSQTTHVPWTFGCGTKVEIKGGGGSGGGGSGGGGSGGGGSQVQLVQSGAEVKKPGASVKLSCKASGYTFISYYIYWVKQAPGQCLEWIGGINPRNGGTNFNEKFKSRATLTVDTSISTAYMELSRLRSEDTAVYYCTRHGNGVYWGQGTTLTVSSGGGGSGGGGSVSLTCLVKGFYPSDIAVEWESNGQPENNYKTTPPVLDSDGSFFLYSRLTVDKSRWQEGNVFSCSVMHEALHNHYTQKSLSLSPGK
light: DNVLTQSPATLSVSPGERATLSCKASQSVDFDGDSYMNWYQQKPGQPPRLLIYAASNLESGIPARFSGSGSGTDFTLTISSVEPEDFATYYCQQSNEDPPTFGGGTKVEIKRTVAAPSVFIFPPSDEQLKSGTASVVCLLNNFYPREAKVQWKVDNALQSGNSQESVTEQDSKDSTYSLSSTLTLSKADYEKHKVYACEVTHQGLSSPVTKSFNRGEC
notes: Anti-CD40 scFv (6A7) fused into each heavy chain CH3 domain at positions 358-362 (EU numbering) of the anti-PD-1 antibody 1A7-H2K3-IgG4
